In patent US20240132603A1 (HARBOUR BIOMED US, published 2024):
Like-named read-outs stand apart in the source and are kept apart here.

Tests used:
human CCR8 [1] = molecular target: T1, human CCR8 (human, UniProt P51685 1-355); assay: FACS, CHO-K1-hCCR8 cells
T1 construct: whole, on cells; construct used for the overexpressing cell lines is not described; also called hCCR8
In short: (§1)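 Binding was measured on intact cells by two-step staining at 4 °C. Test antibodies were applied from 200 nM in 5-fold steps for 1 h, and a secondary reagent at 1:1000 for 40 min, before analysis on a FACS instrument.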

human CCR8 [2] = molecular target: T1, human CCR8; assay: FACS, HEK293-hCCR8 cells
In short: as §1

cynomolgus monkey CCR8 [3] = molecular target: T2, cynomolgus monkey CCR8 (cynomolgus monkey, UniProt G7NYJ2 1-355); assay: FACS, CHO-K1-CynoCCR8 cells
T2 construct: whole, on cells; also called CynoCCR8
In short: (§2)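 Anti-CCR8 antibodies titrated in 5-fold steps from 200 nM onto 1E6 cells/mL CHO-K1-CynoCCR8 in DPBS/2% FBS, 1 h at 4 °C. Bound antibody detected with 1:1000 secondary antibody, 40 min at 4 °C, then flow cytometry.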

human CCR8 [4] = molecular target: T1, human CCR8; assay: FACS competition on HEK293-hCCR8 cells against a biotin-labelled anti-CCR8 antibody at its EC80; the labelled antibody of this panel is not named on the sheet
Description: (§3) The antibody was conjugated with Sulfo-NHS-LC-Biotin at a molar ratio of 5:1 (1 mol antibody was added to 5 mol Sulfo-NHS-LC-Biotin) with reference to the product instructions (ThermoFisher, Cat No. A39257) and incubated on ice for 2 h. The coupled antibody was purified with a Zeba desalting column (ThermoFisher, Cat No. 89882). Cells overexpressing human CCR8, HEK293-hCCR8, were added to a V-bottom 96-well plate at a density of 1E5 cells/well and centrifuged at 300 g for 5 min, and the supernatant was discarded. The competitive antibody was serially diluted in a ratio of 1:10 from 200 nM to obtain 8 concentration points. The Biotin-antibody and the competition antibody were mixed in a 1:1 ratio on an HEK293 cell line overexpressing human CCR8 by the binding EC₈₀ concentration. The cells in the 96-well plate were resuspended and incubated at 4° C. for 1 h. The plate was washed twice with DPBS at 200 μL/well. The secondary antibody diluted in a 1:1000 ratio was added at 100 μL/well, and the mixture was incubated at 4° C. for 40 min. The plate was washed twice with DPBS at 200 μL/well. Finally, DPBS was […] at 200 μL/well to suspend the cells, and the mixture was loaded on an FACS machine for analysis.

human CCR8 [5] = molecular target: T1, human CCR8; assay: as above; remark: listed apart in the source
Description: as §3

human CCR8 [6] = molecular target: T1, human CCR8; assay: FACS on HEK293 cells overexpressing human CCR8
Description: Cells overexpressing human CCR8 were digested with pancreatin, counted and resuspended to a cell density of 1E6 cells/mL. The cell suspension was added to a 96-well V-bottom plate at 100 μL/well and centrifuged at 300 g for 5 min, and the supernatant was discarded. The anti-CCR8 antibodies provided herein was used as a primary antibody and diluted in a 5-fold gradient with an FACS buffer (DPBS containing 2% FBS) from 200 nM. The diluted primary antibody was added at 100 μL/well to resuspend the cells, and the mixture was incubated at 4° C. for 1 h. The plate was washed twice with DPBS and centrifuged at 300×g for 5 min, and the supernatant was discarded. The secondary antibody diluted in a 1:1000 ratio with an FACS buffer was added at 100 μL/well to suspend the cells, and the mixture was incubated at 4° C. for 40 min. The plate was washed twice with DPBS and centrifuged at 300×g for 5 min, and the supernatant was discarded. DPBS was added at 200 μL/well to suspend the cells, and the mixture was loaded on an FACS machine for analysis.

human CCR8 [7] = molecular target: T1, human CCR8; assay: cell-based or functional assay
human CCR8 [8] = molecular target: T1, human CCR8; assay: FACS competition on HEK293-hCCR8 cells against a biotin-labelled anti-CCR8 antibody at its EC80; the labelled antibody of this panel is not named on the sheet; remark: listed apart in the source
Description: as §3

human CCR8 [9] = molecular target: T1, human CCR8; assay: FACS, Baf3-hCCR8 cells
In short: as §1

human CCR8 [10] = molecular target: T1, human CCR8; assay: FACS, HEK293-hCCR8 cells; remark: listed apart in the source
In short: as §1

human CCR8 [11] = molecular target: T1, human CCR8; assay: FACS competition on HEK293-hCCR8 cells against a biotin-labelled anti-CCR8 antibody at its EC80; the labelled antibody of this panel is not named on the sheet; remark: listed apart in the source
Description: as §3

human CCR8 [12] = molecular target: T1, human CCR8; assay: as above; remark: listed apart in the source
Description: as §3

cynomolgus monkey CCR8 [13] = molecular target: T2, cynomolgus monkey CCR8; assay: FACS, CHO-K1-CynoCCR8 cells; remark: listed apart in the source
In short: as §2

T1 sequence (P51685 whole entry): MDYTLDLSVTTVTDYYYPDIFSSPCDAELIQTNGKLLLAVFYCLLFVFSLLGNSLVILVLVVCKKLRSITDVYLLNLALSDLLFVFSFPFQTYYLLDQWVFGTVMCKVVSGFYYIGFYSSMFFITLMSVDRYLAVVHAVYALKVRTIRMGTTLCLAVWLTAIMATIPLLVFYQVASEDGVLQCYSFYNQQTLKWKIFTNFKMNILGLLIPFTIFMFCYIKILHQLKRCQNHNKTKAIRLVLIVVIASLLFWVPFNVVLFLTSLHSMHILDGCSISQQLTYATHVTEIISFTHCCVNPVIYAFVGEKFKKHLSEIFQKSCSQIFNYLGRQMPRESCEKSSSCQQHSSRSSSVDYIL
T2 sequence (G7NYJ2 entry or part of it): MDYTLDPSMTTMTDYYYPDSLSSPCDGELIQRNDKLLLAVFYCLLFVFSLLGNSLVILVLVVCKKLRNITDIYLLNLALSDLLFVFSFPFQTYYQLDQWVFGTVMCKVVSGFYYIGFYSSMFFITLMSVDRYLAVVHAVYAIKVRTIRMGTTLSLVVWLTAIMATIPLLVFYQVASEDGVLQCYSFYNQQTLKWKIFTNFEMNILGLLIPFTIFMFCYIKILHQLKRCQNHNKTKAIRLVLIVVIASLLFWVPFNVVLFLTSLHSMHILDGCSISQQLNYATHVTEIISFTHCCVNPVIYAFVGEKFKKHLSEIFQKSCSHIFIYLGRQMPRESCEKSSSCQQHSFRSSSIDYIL

B1: PR004122 (antibody, human IgG1, kappa)
heavy: not shown
light: DIVMTQAAPSVPVTPGESVSISCRSSKSLLHSNGNTYLYWFLQRPGQSPQLLIYRMSNLASGVPDRFSGSGSGTAFTLRISRVEAEDVGVYYCMQHLEYPLTFGAGTKLELKRTVAAPSVFIFPPSDEQLKSGTASVVCLLNNFYPREAKVQWKVDNALQSGNSQESVTEQDSKDSTYSLSSTLTLSKADYEKHKVYACEVTHQGLSSPVTKSFNRGEC
notes: chimeric, human IgG1 constant region
EC50 (human CCR8 [1]): 0.5 nM
EC50 (human CCR8 [2]): 0.99 nM
EC50 (cynomolgus monkey CCR8 [3]): 2.83 nM
IC50 (read off the curve) (human CCR8 [4]): ~2 nM
IC50 (read off the curve) (human CCR8 [5]): ~2 nM
EC50 (read off the curve) (human CCR8 [6]): ~1 nM
Bottom %, blocking of CCL1-stimulated calcium flux (human CCR8 [7]): 12%
IC50(nM), blocking of CCL1-stimulated calcium flux (human CCR8 [7]): 1.47 nM
IC50 (read off the curve) (human CCR8 [8]): ~3 nM
EC50 (human CCR8 [9]): 0.17 nM
EC50 (human CCR8 [10]): 0.66 nM
IC50 (read off the curve) (human CCR8 [11]): ~2 nM
IC50 (read off the curve) (human CCR8 [12]): 1 to 2 nM
EC50 (cynomolgus monkey CCR8 [13]): 1.06 nM
